# Source: the RNAGym collection of RNA variant scans (doi:10.7554/elife.90254)
# B1: LINE1-full (parent)
# chain: UACGUAGGUGGUUUUCCCCUGAUAGUGCUAAGGGGGCCUGGAAGUUUGGACUGGGCAGAGCUCAACACAGCGUGGCAAAGUGGCUGUGGCUAGACUGCCUCUCUGGAUUCCUCGUCACUCAGCAGGGCAUCUCUGAGAGAAAUGCC
# Variants of: B1
# Assay: self-cleavage, relative activity (ratio to wild type); higher = more cleavage; in vitro, sequencing; the parent is a self-cleaving ribozyme
row,Variant,self-cleavage
1,U14C G25U,1.26
2,U104A U130A,0.89
3,U15C G122U,1.16
4,U15C G122A,1.66
5,U9A G27A,0.81
6,C19A A142U,1.36
7,C116U A129G,0.93
8,U12C A124G,1.23
9,U14C A121C,1.13
10,A69U A138U,0.09
11,A22U U119A,1.46
12,G40A A129G,1.42
13,U46C U109C,1.41
14,U14C A57U,0.06
15,U52A U87G,0.29
16,U1C C133U,1.16
17,U1C G144A,0.72
18,U1G U96C,0.87
19,U73C U115C,1.63
20,U39C C118A,1.33
21,A6G G11A,2.36
22,G7A U9C,0.68
23,A31G U73A,0.79
24,U23A A65G,0.1

row,Variant,self-cleavage
1,A69G G86A,0.03
2,U20C U112A,0.61
3,A69G A141G,0.44
4,A22G A92G,0.2
5,G75A U143A,1.53
6,A57G C66U,0.05
7,A107G U119A,1.91
8,U81C A94U,0.37
9,U81C A94G,0.37
10,C56A A121G,0.03
11,A79G A136U,0.91
12,A24U A124G,1.06
13,G74U U143C,1.48
14,G34A A57C,0.07
15,C90G A92G,0.03
16,U52C U104C,1.1
17,U96C A141G,0.18
18,A107G A129G,1.63
19,U39C U102C,0.99
20,A78U C110U,1.28
21,U62C C131A,0.03
22,C18U A69G,0.29
23,U1C G106A,0.73
24,A79C U87A,0.18

row,Variant,self-cleavage
1,U109A A142G,1.39
2,U39C G41A,1.41
3,U9C U143C,1.31
4,A64C A124U,0.27
5,G70A C128A,0.04
6,G55A A94G,0.2
7,U5C G34U,0.82
8,U13C U132A,1.3
9,A64U A124G,0.3
10,G4C U130A,1.1
11,G7U A65G,0.13
12,U5C U112C,0.99
13,G80C A107G,1.52
14,U119A U134A,1.42
15,U102C C133U,0.47
16,C18U U85C,0.12
17,U13C C18U,1.57
18,U96A U104C,0.07
19,U5C A129U,1.05
20,U85G A141G,0.1
21,G82A A107G,1.73
22,A31U U119C,1.62
23,A43G G122A,0.19
24,U62A A67U,0.06

row,Variant,self-cleavage
1,U13C G41A,1.81
2,C17U U143G,1.43
3,U112C C145A,1.39
4,U87C C98A,0.09
5,U112A A141G,1.43
6,A6G U23G,0.85
7,U102C A138U,1.49
8,A78U U87G,0.23
9,U14G A136G,1.16
10,A31U U52C,0.87
11,U39A A136U,1.52
12,C51U U52C,0.99
13,G72U U87C,0.32
14,C71U U73C,0.1
15,U115C U130G,0.66
16,A57G U108A,0.8
17,U15G,1.06
18,U23A A121G,1.41
19,U29G U85C,0.46
20,A78G A117U,1.6
21,A6G A121U,0.99
22,U14A A77G,1.39
23,U12G A141G,1.22
24,U102A A142U,1.5

row,Variant,self-cleavage
1,U14A C99U,0.85
2,U12C U96A,0.1
3,A77G U85C,0.25
4,A121G A136G,1.65
5,A43G G48U,1.28
6,A59G A92C,0.14
7,G106U A141G,0.83
8,U13A A140G,0.52
9,U23C U73A,1.28
10,G49U C71U,0.71
11,A67U A79G,0.18
12,U115G A136G,1.53
13,U29A A69G,0.42
14,U46C A77C,1.01
15,U134A A140C,0.55
16,A78G G86U,0.08
17,G70A A140G,0.06
18,A57G U134C,0.93
19,A121G U130A,1.25
20,U29G,1.1
21,A50C A65U,0.31
22,G88A U119A,0.06
23,C3A A121U,0.58
24,C17U C131A,1.58

row,Variant,self-cleavage
1,U62C U85A,0.03
2,U96C C146U,0.15
3,G27A A59G,0.13
4,A78C A136G,2.92
5,U45C U143C,1.7
6,C113U G126A,1.62
7,A24U A30G,1.09
8,G36C A121G,1.39
9,U46A U47C,1.13
10,A30U G144A,0.75
11,A124G G139U,1.91
12,U14C U46C,1.3
13,U9A A129U,1.43
14,A57C G86A,0.04
15,U52C G53A,0.6
16,A69G G125U,0.3
17,C19U A22U,1.11
18,G135C,1.55
19,A31G U96A,0.11
20,U47G A136U,1.53
21,A57G A65G,0.1
22,A31U U47C,1.08
23,U45A G74U,1.59
24,U29C G60A,0.02

row,Variant,self-cleavage
1,U104C U112A,1.8
2,U29G U112C,1.36
3,A43G G86U,0.03
4,C116U A141G,1.42
5,U47G U81A,1.81
6,A124G G125U,1.27
7,U134G,1.46
8,U15C A107G,1.14
9,G86A U100C,0.1
10,A50G A121G,1.11
11,U104C U109A,0.65
12,A43C U100A,1.41
13,A42U U62C,0.04
14,C76G A141G,2.47
15,A65G A77G,0.04
16,A65G U100C,0.06
17,G106U U134C,0.75
18,U47C A121U,1.52
19,G41A A117G,1.53
20,G32U G55A,0.18
21,U14C C145A,1.28
22,G80U U87C,0.2
23,A69G U102C,0.47
